Results: the supplement of paper PMC10567573
± gives the standard deviation.

Test: protein stability index of a GFP-peptide fusion (GPS, HEK-293T) (PSI 1-6); higher = more stable
Conditions: c terminus: a fixed tail appended
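Also: 24-mer peptide tiles fused after GFP, lentivirally expressed, FACS-sorted into six equal bins by GFP/DsRed ratio, decoded by Illumina sequencing, PSI is the read-weighted mean bin number.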

Row | Sequence | protein stability index (treatment: DMSO) | protein stability index (treatment: MLN4924 1 uM, 8 h)
1 | ALKHPWISHRSTVASCMHRQETVD [CAMK2A] | 3.18 ± 0.13 | 3.35 ± 0.16
2 | KEPATMSWLEENVHEVLQAVDAGD [TCF25] | 5.05 ± 0.25 | 5.13 ± 0.17
3 | ISHEEQKSVRLARELESREAELRR [CHCHD6] | 5 ± 0.3 | 5.14 ± 0.37
4 | HNAWLSYSLLPQSTAPGLFLVSTH [PCDHGC5] | 2.51 ± 0.58 | 2.63 ± 0.56
5 | AEKSVAPSNTGSRTTSVRCRGIPR [NEK8] | 4.63 ± 0.16 | 4.7 ± 0.26
6 | GGGSNNGKTPVCHQCHKVIRGRYL [PDLIM7] | 2.81 ± 0.52 | 3.07 ± 0.42
7 | EFEAVVRQAELAIERCIFPERIYQ [PI4K2A] | 2.43 ± 0.37 | 2.33 ± 0.41
8 | LSYVMSGYRCFVCPVEYNNDTNSF [CDS2] | 2.78 ± 0.42 | 2.82 ± 0.45
9 | GNTIALFFRSLLPNYTMEGERPEE [TCF25] | 2.17 ± 0.62 | 2.72 ± 0.21
10 | GRGVKKRLVLCMELANGKPQTRSG [ADAMTSL2] | 2.19 ± 0.56 | –
11 | TVEDLFYNIATRRKALKNPSEEYG [MLH1] | 3.02 ± 0.8 | 3.06 ± 0.1
12 | AHAVLGQHSHVVRYFSAWAEDDHM [WEE1] | 3.55 ± 0.43 | 3.71 ± 0.057
13 | HGGLYKPVQCHPSTGYCWCVLVDT [SMOC2] | 2.46 ± 0.86 | 2.39 ± 0.74
14 | LRTLSRAKFWPRRRFNFFVLENNL [DNAAF3] | 2.33 ± 0.99 | 2.15 ± 0.087
15 | VSEFLKVAEQVGIDKGDIPDLTQA [SNAP91] | 4.18 ± 0.45 | 4.13 ± 0.44
16 | AESDYSNNIMKCRSRYDGHRIWMY [LOXL2] | 2.4 ± 0.29 | 2.1 ± 0.38
17 | RYLAVLESPIPEDKDRRFVFSYFL [EFHC1] | 2.37 ± 0.38 | 2.25 ± 0.85
18 | LVGNKSDLRHLRAVPTDEARAFAE [RAB11A] | 4.29 ± 0.34 | 4.39 ± 0.21
19 | TPWALALLRTFDAGEFTGWEKVGS [RIPK4] | 2.29 ± 0.61 | 1.49 ± 0.13
20 | KSSGKHYGQFTCEGCKSFFKRSVR [NR2F2] | 2.37 ± 0.18 | 2.68 ± 0.41
21 | AMFAADPKKPIGGNIIAHASTTRL [RAD51] | 3.32 ± 0.087 | 3.39 ± 0.12
22 | MVHQRKLEAELLQIEERHQEKKRK [SMARCE1] | 4.58 ± 0.34 | 4.36 ± 0.32

Row | Sequence | protein stability index (treatment: DMSO) | protein stability index (treatment: MLN4924 1 uM, 8 h)
23 | FTMFLNLFGEKLSGTDAEETILNA [MYL5] | 2.12 ± 0.37 | 2.21 ± 0.2
24 | QVEKNKYDASAIDFSRCDMDGATL [ELF3] | 4.63 ± 0.23 | 4.58 ± 0.14
25 | YIEMQTDPANCDYVIVSGAQRKEE [YJU2B] | 4.2 ± 0.2 | 4.57 ± 0.36
26 | ELQNQLAACTRALESSEELLETAN [FSD1] | 4.24 ± 0.37 | 4.37 ± 0.39
27 | SRDSAAITHSTYSLPASSYSQDPV [NOL4L] | 4.54 ± 0.12 | 4.62 ± 0.15
28 | RRLGNGVSDDLSSEEDGEARTQMI [PHTF1] | 5.38 ± 0.2 | 5.21 ± 0.23
29 | HTPLISKSQSLRSVRRSESWARPR [RASAL3] | 3.45 ± 0.29 | 3.66 ± 0.22
30 | KEAVTGSRLGQGIGPIHLNEIQCT [LOXL2] | 3.77 ± 0.61 | 3.93 ± 0.47
31 | MEAPGLAQAAAAESDSRKVAEETP [PRKX] | 5.56 ± 0.38 | 5.54 ± 0.31
32 | SVSLNKTARPFGAPPPADSAPQQN [PDLIM7] | 4.42 ± 0.11 | 4.46 ± 0.13
33 | VTLRRGLRSRASRCRPRSLIDYKS [FAM189A2] | 2.12 ± 0.33 | 2.23 ± 0.39
34 | VHRGDGANPFQAYLDVDLTLTREQ [RTN2] | 3.88 ± 0.088 | 3.82 ± 0.25
35 | ESFTVHFLPLNSAQTLHHKSCYNG [DNAAF3] | 2.4 ± 0.62 | 2.49 ± 0.42
36 | ELPAPAEVAAKNQSLEGDTTKGTS [MLH1] | 5.61 ± 0.14 | 5.59 ± 0.16
37 | TETREEDVTDEHGEREPFAETDEH [FAM9B] | 5.69 ± 0.061 | 5.63 ± 0.26
38 | DMERFMEEMRELRRKIRELQLRYS [BEX5] | 2.44 ± 0.36 | 2.56 ± 0.6
39 | QEKKILELEKLAEKNIILEEKIQV [MTUS2] | 4.3 ± 0.28 | 4.29 ± 0.17
40 | AEPSRFSSSDSDFDDEEPRKFYVH [FCHO1] | 4.87 ± 0.18 | 4.87 ± 0.13
41 | LPPIPHVFSAGTGSAILPHFHHAF [PLAGL1] | 2.15 ± 0.28 | 2.11 ± 0.1
42 | EILRYMKEFTLLLSAANVCLDPII [P2RY14] | 2.44 ± 0.47 | 2.26 ± 0.31
43 | LQLFSSTLVGCWSDVVGRRSSLLA [MFSD9] | 2.59 ± 0.65 | 2.38 ± 0.47
44 | HDYHGILVDEEEKVLIQKNLGPKS [ADD1] | 4.79 ± 0.33 | 4.9 ± 0.075

Row | Sequence | protein stability index (treatment: DMSO) | protein stability index (treatment: MLN4924 1 uM, 8 h)
45 | FSTDAFSSPPQGASPVPESSLTAD [SNAP91] | 3.65 ± 0.57 | 4.25 ± 0.43
46 | AKVNYVKNNICFMSHHQEELVPKQ [SLC2A12] | 3 ± 0.41 | 3.16 ± 0.41
47 | NYGGVIKNYFQHREFSFTLKDDIY [PRIM1] | 2.13 ± 0.2 | 2.25 ± 0.08
48 | FPRDHTSLALVQNGDVSAPSAILR [ANKRD40] | 3.72 ± 0.34 | 3.97 ± 0.2
49 | GELPNHPKPAGGAIPTKKSLPSPS [FBF1] | 5.2 ± 0.25 | 5.25 ± 0.16
50 | VAREYYSEADASHCIQQILESVNH [CAMK2D] | 3.46 ± 0.17 | 3.37 ± 0.3
51 | VELLLARKISVNAKDEDQWTALHF [RIPK4] | 2.91 ± 0.82 | 1.83 ± 0.4
52 | EFVVRCFACPSQALFFKNIMNIID [KCNA4] | 2.4 ± 0.78 | 2.12 ± 0.55
53 | LVEETSCQQNMIQELIETNQQLRN [CEP70] | 4.3 ± 0.24 | 4.41 ± 0.3
54 | LDQLLDMPAAGLAVQLRHAWNPED [SPSB4] | 3.44 ± 0.28 | 3.68 ± 0.16
55 | TRQLSLAVKDGLIVETLTVGCKGS [ZMYND11] | 3.17 ± 0.15 | 3.49 ± 0.26
56 | GKSGLRVSCLGLGTWVTFGGQITD [KCNAB2] | 2.2 ± 0.61 | 2.04 ± 0.64
57 | SQNSFLVQEVMEEEWNALQSVENC [RPAIN] | 4.53 ± 0.29 | 4.52 ± 0.32
58 | EEDGGADEHEHPLTSELDPEKEQE [MIA2] | 5.4 ± 0.57 | 5.5 ± 0.37
59 | DSTLSYTETEATNSLITAPGEFSD [SMAD6] | 5.34 ± 0.2 | 5.39 ± 0.17
60 | FAAEARYPIYVIPEPPPVSFQPYH [TENT5D] | 2.24 ± 0.22 | 2.26 ± 0.34
61 | RVFQNRFSTQYRCFSVSMLAGPND [UFD1] | 2.38 ± 0.34 | 2.3 ± 0.26
62 | AAINSIYSNTDANILFYVVGLRNT [GLT8D2] | 2.97 ± 0.91 | 2.75 ± 0.73
63 | TTSTLKAWLNEHRKNPYPTKGEKI [IRX6] | 3.13 ± 0.44 | 3.37 ± 0.16
64 | PMVNHAEASRLNIERMKQIYQQLS [CRY1] | 2.81 ± 0.34 | 2.77 ± 0.25
65 | STNRRRLSELLRYHTSQSGDEMTS [HSP90AB1] | 3.85 ± 0.15 | 4.11 ± 0.12
